From patent US20130108602A1, “METHODS AND USES OF NUR77 AND NUR77 AGONISTS TO MODULATE MACROPHAGES AND MONOCYTES, AND TREAT INFLAMMATION, INFLAMMATORY DISEASE AND CARDIOVASCULAR DISEASE” (LA JOLLA INSTITUTE FOR ALLERGY AND IMMUNOLOGY, priority 2010, published 2013)

What was measured:
Nur77 mRNA = assay: Nur77 (NR4A1) mRNA by real-time RT-PCR in human monocyte-derived macrophages; format: cell-based
Nur77 protein = Nur77 protein staining in primary human monocyte-derived macrophages; format: cell-based; details: at 24 hours, Gal-3BP 10 μg/ml

B1: Gal-3BP: recombinant human galectin-3 binding protein (R&D) (protein, UniProt Q08380 19-585, looked up)
Galectin-3-binding protein: VNDGDMRLADGGATNQGRVEIFYRGQWGTVCDNLWDLTDASVVCRALGFENATQALGRAAFGQGSGPIMLDEVQCTGTEASLADCKSLGWLKSNCRHERDAGVVCTNETRSTHTLDLSRELSEALGQIFDSQRGCDLSISVNVQGEDALGFCGHTVILTANLEAQALWKEPGSNVTMSVDAECVPMVRDLLRYFYSRRIDITLSSVKCFHKLASAYGARQLQGYCASLFAILLPQDPSFQMPLDLYAYAVATGDALLEKLCLQFLAWNFEALTQAEAWPSVPTDLLQLLLPRSDLAVPSELALLKAVDTWSWGERASHEEVEGLVEKIRFPMMLPEELFELQFNLSLYWSHEALFQKKTLQALEFHTVPFQLLARYKGLNLTEDTYKPRIYTSPTWSAFVTDSSWSARKSQLVYQSRRGPLVKYSSDYFQAPSDYRYYPYQSFQTPQHPSFLFQDKRVSWSLVYLPTIQSCWNYGFSCSSDELPVLGLTKSGGSDRTIAYENKALMLCEGLFVADVTDFEGWKAAIPSALDTNSSKSTSSFPCPAGHFNGFRTVIRPFYLTNSSGVD
- time of peak Nur77 mRNA expression after addition (Nur77 mRNA; M-CSF-derived human macrophages (M0), Gal-3BP 10 μg/ml): 48 h
- NUR77 mRNA increase (Nur77 mRNA; M-CSF-derived human macrophages (M0), Gal-3BP 10 μg/ml, 0-72 hours, two independent studies): 3-4 fold
- NR4A1 expression induction (Nur77 mRNA; human primary macrophages, 6 hours after Gal-3BP, normalized to t=0, n=3): more than 6 fold
- Nur77 protein compared to control (Nur77 protein): massively increased
